The source of these data is patent publication US20040072179.

The test system of data set [1] is 17 kDa substrate containing the target cleavage site Glu-Asn-Leu-Tyr-Phe-Gln-Gly (SEQ ID NO: 5).
Data set [2] has as its target 17 kDa substrate containing the target cleavage site Glu-Asn-Leu-Tyr-Phe-Gln-Gly (SEQ ID NO: 5). This is another data set of the same source.

Read-outs that look alike come from different tables or passages of the source.

On to “TPSN (mutant 27 kDa NIa proteinase with Ser219 to Asn mutation, C-terminal His6 tag)”, for which the “specific activity for substrate cleavage” value in data set [1] is “TPWT and TPSN have similar activity to each other and to the commercially available proteinase at all substrate concentrations tested”.

B1: commercially available 27 kDa NIa proteinase (GibcoBRL) (protein)
chain: GESLFKGPRDYNPISSTICHLTNESDGHTTSLYGIGFGPFIITNKHLFRRNNGTLLVQSLHGVFKVKNTTTLQQHLIDGRDMIIIRMPKDFPPFPQKLKFREPQREERICLVTTNFQTKSMSSMVSDTSCTFPSSDGIFWKHWIQTKDGQCGSPLVSTRDGFIVGIHSASNFTNTNNYFTSVPKNFMELLTNQEAQQWVSGWRLNADSVLWGGHKVFMSKPEEPFQPVKEATQLMNELVYSQ
Consider B1, for which, in data set [2], the “specific activity for substrate cleavage” value was “TPWT and TPSN have similar activity to each other and to the commercially available proteinase at all substrate concentrations tested”; the “substrate cleavage (SDS-PAGE)” value is “produces a ˜15 kDa peptide when cleaved with commercially available 27 kDa NIa proteinase (GibcoBRL)”.

B2: TPWT (wild type 27 kDa NIa proteinase of tobacco etch virus, C-terminal His6 tag) (protein)
chain: MAESGESLFKGPRDYNPISSTICHLTNESDGHTTSLYGIGFGPFIITNKHLFRRNNGTLLVQSLHGVFKVKNTTTLQQHLIDGRDMIIIRMPKDFPPFPQKLKFREPQREERICLVTTNFQTKSMSSMVSDTSCTFPSSDGIFWKHWIQTKDGQCGSPLVSTRDGFIVGIHSASNFTNTNNYFTSVPKNFMELLTNQEAQQWVSGWRLNADSVLWGGHKVFMSKPEEPFQPVKEATQLMNELVYSQLHHHHHH
B2: the “specific activity for substrate cleavage” value in data set [2] was “TPWT and TPSN have similar activity to each other and to the commercially available proteinase at all substrate concentrations tested”.
